Assay results from PMC11931385, “Structural and functional analysis of cancer-associated missense variants in the retinoblastoma protein pocket domain” (The Journal of Biological Chemistry, 2025).
Positions count from the first letter of the chain named. Names and notes keep the numbering of the source. No end group written: not given here. TMR = tetramethyl rhodamine dye

T1: Rb^P R621H (human, UniProt P06400 380-788, R621H)
T1 construct: also called variant 42
T1 sequence (looked up): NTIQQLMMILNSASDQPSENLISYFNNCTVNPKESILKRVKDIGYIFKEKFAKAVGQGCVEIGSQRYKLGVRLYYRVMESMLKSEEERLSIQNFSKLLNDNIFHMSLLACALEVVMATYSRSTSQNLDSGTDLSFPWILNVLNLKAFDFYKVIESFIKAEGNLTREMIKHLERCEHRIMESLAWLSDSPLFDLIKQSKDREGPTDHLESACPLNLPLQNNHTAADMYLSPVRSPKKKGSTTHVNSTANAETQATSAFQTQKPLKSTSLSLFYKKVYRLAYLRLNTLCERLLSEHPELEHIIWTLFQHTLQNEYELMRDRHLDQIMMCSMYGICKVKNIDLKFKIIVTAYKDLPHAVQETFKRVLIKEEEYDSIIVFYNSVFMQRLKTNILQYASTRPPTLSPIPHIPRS

T2: Rb^P A490S (human, UniProt P06400 380-788, A490S)
T2 construct: also called variant 15
T2 sequence (looked up): T1 sequence (looked up) with A111S, H242R

T3: retinoblastoma protein pocket domain (Rb^P), wild type (human, UniProt P06400 380-788)
T3 construct: also called WT Rb^P; WT
T3 sequence (looked up): T1 sequence (looked up) with H242R

T4: Rb^P I703F (human, UniProt P06400 380-788, I703F)
T4 construct: also called variant 64
T4 sequence (looked up): T1 sequence (looked up) with H242R, I324F

T5: Rb^P E554K (human, UniProt P06400 380-788, E554K)
T5 construct: also called variant 28
T5 sequence (looked up): T1 sequence (looked up) with E175K, H242R

B1: TMR-E2F1^TD, peptide of the E2F1 transactivation domain (peptide)
peptide: {TMR}-GEGIRDLFDCDFGDLTPLD
notes: also called E2F^TD; source: synthetic peptide, bought: GenScript
B2: TMR-E7^LxCxE, LxCxE peptide of the E7 oncoprotein from HPV (peptide)
peptide: DLYCYEQLN
modifications: also: TMR label, position not given here
notes: source: synthetic peptide, bought: GenScript

How the values were obtained:
Conditions in all cases: both partners purified
Rb^P R621H = target: T1, Rb^P R621H; test: fluorescence polarisation; 25 °C; unlabeled Rb^P titrated against 1.5 nM TMR-E2F1^TD or 7.5 nM TMR-E7^LxCxE; 25 mM Tris pH 8.0, 200 mM NaCl, 1 mM DTT, 0.1% Tween-20; 2 min incubation; quadratic fit; apparent Kd for the variants, Kd for WT
Rb^P A490S = target: T2, Rb^P A490S; test: as above
[1] = target: T3, retinoblastoma protein pocket domain …; test: fluorescence polarisation; 25 °C after warming to 37 °C (7 min ramp, 2 min at 37 °C), 1 min on ice and 3 min at 25 °C; unlabeled Rb^P against 1.5 nM TMR-E2F1^TD or 7.5 nM TMR-E7^LxCxE; 25 mM Tris pH 8.0, 200 mM NaCl, 1 mM DTT, 0.1% Tween-20; apparent Kd
Rb^P I703F = target: T4, Rb^P I703F; test: as above
Rb^P E554K = target: T5, Rb^P E554K; test: as above

Binder | Kd (Rb^P R621H) | Kd (Rb^P A490S) | Kd [1] | Kd (Rb^P I703F) | Kd (Rb^P E554K)
B1 | 30 nM | 17 nM | 17 nM | 94 nM | 1740 nM
B2 | 10 nM | 7 nM | 7 nM | 53 nM | 24 nM
